Test results taken from PMC3576024.

Key:
Test in all cases: DTNB colorimetric detection of released CoA, Michaelis-Menten fit
Type in all cases: biochemical, Aedes aegypti
Conditions in all cases: apparent Km; 0.4 mM acetyl-CoA, 50 mM Tris-HCl, 1.0 mg/mL BSA, room temperature
[1] = substrate: NCCc1c[nH]c2ccccc12
[2] = substrate: NCCc1c[nH]c2ccc(O)cc12
[3] = substrate: NC[C@H](O)c1ccc(O)c(O)c1
[4] = substrate: NC[C@H](O)c1ccc(O)cc1
[5] = substrate: NCCc1ccc(O)c(O)c1
[6] = substrate: NCCc1ccc(O)cc1

B1: aaNAT1 (PaaNAT1) (Aedes aegypti) (protein)
chain: MASKMSTVSSDAKGAIVKPSSTDDSTLPLDEVDTNISIELITEDDAEDVLKLLKKFFFKDEPLNTFVNLGECKELEKYSTKNLHEHCSFKAVNGRGEIVGVNINGLINRPKETDEPPAKLADGCEHPKFKKIMALMDYVDEHFNIFDLYPDVDRMLDVKIMSVDSRYRGLGIAGKLTDRTMQYVKDNNIKLVHVLCSSHFSARVMEKLDFEEVYKLDYSDYLVNGEQVFDPEKPHTAVRILTKRLA
[1]
  Km: 160 ± 40 µM
  kcat: 7.34 ± 0.528 s⁻¹
  kcat/Km: 45900 M⁻¹ s⁻¹
[2]
  Km: 230 ± 60 µM
  kcat: 7.54 ± 0.595 s⁻¹
  kcat/Km: 32800 M⁻¹ s⁻¹
[3]
  Km: 160 ± 40 µM
  kcat: 7.76 ± 0.577 s⁻¹
  kcat/Km: 48500 M⁻¹ s⁻¹
[4]
  Km: 140 ± 80 µM
  kcat: 7.26 ± 1.12 s⁻¹
  kcat/Km: 51900 M⁻¹ s⁻¹
[5]
  Km: 190 ± 70 µM
  kcat: 7.3 ± 0.742 s⁻¹
  kcat/Km: 38400 M⁻¹ s⁻¹
[6]
  Km: 170 ± 40 µM
  kcat: 6.77 ± 0.413 s⁻¹
  kcat/Km: 39800 M⁻¹ s⁻¹

B2: aaNAT2 (PaaNAT2) (Aedes aegypti) (protein)
chain: MLDSKLNNIRFETISSKYYDDVIEHLRQTFFADEPLNKAVNLTRPGQGHPLLEQHSLSTLKDNVSIMAISNDGDIAGVALNGILYGNTDIEKSREKLNEIQDESFKKIFKLLYEQNLKINLFKQFDVDKIFEIRILSVDSRFRGKGLAKKLIEKSEELALDRGFQVMKTDATGAFSQRVVSSLGFITKCEINYTDYLDENGEQIFVVDPPHEKLKIMCKVIN
[1]
  Km: 170 ± 40 µM
  kcat: 3.05 ± 0.197 s⁻¹
  kcat/Km: 17900 M⁻¹ s⁻¹
[2]
  Km: 230 ± 50 µM
  kcat: 3.16 ± 0.198 s⁻¹
  kcat/Km: 13800 M⁻¹ s⁻¹
[3]
  Km: 420 ± 60 µM
  kcat: 3.47 ± 0.192 s⁻¹
  kcat/Km: 8270 M⁻¹ s⁻¹
[4]
  Km: 270 ± 40 µM
  kcat: 3.65 ± 0.175 s⁻¹
  kcat/Km: 13500 M⁻¹ s⁻¹
[5]
  Km: 130 ± 50 µM
  kcat: 2.56 ± 0.25 s⁻¹
  kcat/Km: 19700 M⁻¹ s⁻¹
[6]
  Km: 170 ± 30 µM
  kcat: 3.17 ± 0.183 s⁻¹
  kcat/Km: 18600 M⁻¹ s⁻¹
